Test results as given in the supplement of paper PMC10065799, “High-throughput profiling of sequence recognition by tyrosine kinases and SH2 domains using bacterial peptide display” (eLife, 2023).

Test system: AncSZ
Test: phosphorylation enrichment, bacterial display (enrichment ratio); higher = better substrate or ligand; peptides without Tyr show the background
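Further: 11-residue human phosphosite peptides and single-mutation variants displayed on the E. coli surface, counted by deep sequencing, each peptide's frequency after selection divided by its frequency in the unselected input library; frequency after pTyr selection over input frequency; kinase dosed for 20-30% of maximal phosphorylation in three min.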

In order of falling phosphorylation enrichment:
1. RRNEEYCLLDS [ITK_Y198]  2.25
2. DTDSSYCIPTA [GAB1_Y373]  1.99
3. TEVIWYKGDEE  1.72
4. DTYDPYLDIAL [USP36_Y268_V271I]  1.6
5. LGGAMYYLEAD [PKHD1_Y452_E457D]  1.39
6. LWQSIYNLEAE [TNNT2_Y251]  1.33
7. DQVEQYKKELE [LMNA_Y259]  1.32
8. RMDGTYACSFT [FLNB_Y704_YF]  1.3
9. GYYDLYGGEKF [PTPN11_Y66_D61G]  1.3
10. FKWAVYCIIGR [NUP93_Y391_R388W_YF]  1.28
11. RVDRDYVLKSA [HTATIP2_Y111]  1.08
12. LARDMHDKEFF [MET_Y1230_Y1230H_YF]  1.08
13. ELPEKYSQNIC [PKP2_Y626_Y631C]  1.01
14. SLIDMYSKVLD [OPA1_Y268_E270K]  0.953
15. ADDSYYTARSA [ZAP70_Y493]  0.932
16. EYGRRYGFSCQ [CCDC93_Y209_R213C]  0.931
17. MIAIRYSHSRR [ACOXL_Y260_T255M]  0.875
18. DPHECYAKVFN [ALB_Y394_D399N]  0.844
19. KFDLMYAKLAF [TUBA1A_Y399_R402L]  0.818
20. ELTTCYRKKCC [CCBE1_Y70]  0.817
21. ARIVDYNIIGW [MYH7_Y588_G584R]  0.808
22. EVKEAYMGNVL [ACAT1_Y90]  0.804
23. KTNVSYFGALD [CACNB4_Y103_C104F]  0.789
24. LGRKLYSIATP [ABHD12_Y345_A349T]  0.773
25. LNEWHYGGLTG [PGAM2_Y92_R90W]  0.74
26. PGLRGYPGLSG [COL4A2_Y306]  0.709
27. ISRASYFRKGG [ALK_Y1282_Y1278S_YF]  0.664
28. MTKEQYIKMNR [ARFGEF2_Y797]  0.595
29. PNATLYKMSSI [SERPINA7_Y40]  0.592
30. RRGMPYGGHGD [TGM1_Y312_R315H]  0.572
31. NFRNTYVNANE [KCNH2_Y475_T473N]  0.559
32. GLGGVYGGASG [KRT8_Y54_G53V]  0.514
33. KGELRYMHSPV [ABCD1_Y281_R285P]  0.481

Target: FGFR3 (UniProt P22607)
Sequence (P22607 whole entry, looked up): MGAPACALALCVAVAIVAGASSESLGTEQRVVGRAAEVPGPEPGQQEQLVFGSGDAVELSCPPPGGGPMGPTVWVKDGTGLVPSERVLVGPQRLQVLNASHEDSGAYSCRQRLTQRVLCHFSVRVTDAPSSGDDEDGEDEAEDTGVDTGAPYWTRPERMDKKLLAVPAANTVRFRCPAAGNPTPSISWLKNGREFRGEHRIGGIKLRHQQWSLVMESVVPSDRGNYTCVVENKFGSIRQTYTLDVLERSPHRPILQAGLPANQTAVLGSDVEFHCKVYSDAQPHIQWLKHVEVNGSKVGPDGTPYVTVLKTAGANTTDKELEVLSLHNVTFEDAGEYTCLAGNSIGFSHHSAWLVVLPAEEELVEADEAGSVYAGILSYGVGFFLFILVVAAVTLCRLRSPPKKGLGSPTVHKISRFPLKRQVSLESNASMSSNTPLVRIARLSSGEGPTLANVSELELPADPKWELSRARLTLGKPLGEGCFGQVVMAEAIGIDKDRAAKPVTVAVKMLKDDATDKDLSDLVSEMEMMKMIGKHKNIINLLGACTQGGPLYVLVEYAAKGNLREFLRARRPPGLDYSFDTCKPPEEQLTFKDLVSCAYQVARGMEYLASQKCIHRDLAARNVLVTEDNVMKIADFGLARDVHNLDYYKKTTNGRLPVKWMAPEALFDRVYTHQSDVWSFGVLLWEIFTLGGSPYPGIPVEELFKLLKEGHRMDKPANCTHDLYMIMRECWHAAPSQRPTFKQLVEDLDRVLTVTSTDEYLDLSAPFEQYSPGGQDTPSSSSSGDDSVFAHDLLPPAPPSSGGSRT
Test: as above

In order of falling phosphorylation enrichment:
1. GYYDLYGGEKF [PTPN11_Y66_D61G]  8.65
2. LGGAMYYLEAD [PKHD1_Y452_E457D]  1.6
3. RRNEEYCLLDS [ITK_Y198]  1.12
4. LWQSIYNLEAE [TNNT2_Y251]  1.05
5. DTYDPYLDIAL [USP36_Y268_V271I]  0.968
6. LNEWHYGGLTG [PGAM2_Y92_R90W]  0.891
7. ARIVDYNIIGW [MYH7_Y588_G584R]  0.839
8. RMDGTYACSFT [FLNB_Y704_YF]  0.812
9. ADDSYYTARSA [ZAP70_Y493]  0.754
10. FKWAVYCIIGR [NUP93_Y391_R388W_YF]  0.714
11. TEVIWYKGDEE  0.704
12. EYGRRYGFSCQ [CCDC93_Y209_R213C]  0.696
13. DQVEQYKKELE [LMNA_Y259]  0.688
14. KFDLMYAKLAF [TUBA1A_Y399_R402L]  0.676
15. LARDMHDKEFF [MET_Y1230_Y1230H_YF]  0.661
16. DTDSSYCIPTA [GAB1_Y373]  0.65
17. DPHECYAKVFN [ALB_Y394_D399N]  0.643
18. SLIDMYSKVLD [OPA1_Y268_E270K]  0.637
19. LGRKLYSIATP [ABHD12_Y345_A349T]  0.635
20. KTNVSYFGALD [CACNB4_Y103_C104F]  0.634
21. ELPEKYSQNIC [PKP2_Y626_Y631C]  0.599
22. RVDRDYVLKSA [HTATIP2_Y111]  0.585
23. GLGGVYGGASG [KRT8_Y54_G53V]  0.52
24. MIAIRYSHSRR [ACOXL_Y260_T255M]  0.518
25. ELTTCYRKKCC [CCBE1_Y70]  0.507
26. EVKEAYMGNVL [ACAT1_Y90]  0.505
27. PNATLYKMSSI [SERPINA7_Y40]  0.495
28. NFRNTYVNANE [KCNH2_Y475_T473N]  0.474
29. RRGMPYGGHGD [TGM1_Y312_R315H]  0.472
30. PGLRGYPGLSG [COL4A2_Y306]  0.468
31. KGELRYMHSPV [ABCD1_Y281_R285P]  0.458
32. MTKEQYIKMNR [ARFGEF2_Y797]  0.445
33. ISRASYFRKGG [ALK_Y1282_Y1278S_YF]  0.388

Target: Jak2 (UniProt O60674)
Sequence (O60674 whole entry, looked up): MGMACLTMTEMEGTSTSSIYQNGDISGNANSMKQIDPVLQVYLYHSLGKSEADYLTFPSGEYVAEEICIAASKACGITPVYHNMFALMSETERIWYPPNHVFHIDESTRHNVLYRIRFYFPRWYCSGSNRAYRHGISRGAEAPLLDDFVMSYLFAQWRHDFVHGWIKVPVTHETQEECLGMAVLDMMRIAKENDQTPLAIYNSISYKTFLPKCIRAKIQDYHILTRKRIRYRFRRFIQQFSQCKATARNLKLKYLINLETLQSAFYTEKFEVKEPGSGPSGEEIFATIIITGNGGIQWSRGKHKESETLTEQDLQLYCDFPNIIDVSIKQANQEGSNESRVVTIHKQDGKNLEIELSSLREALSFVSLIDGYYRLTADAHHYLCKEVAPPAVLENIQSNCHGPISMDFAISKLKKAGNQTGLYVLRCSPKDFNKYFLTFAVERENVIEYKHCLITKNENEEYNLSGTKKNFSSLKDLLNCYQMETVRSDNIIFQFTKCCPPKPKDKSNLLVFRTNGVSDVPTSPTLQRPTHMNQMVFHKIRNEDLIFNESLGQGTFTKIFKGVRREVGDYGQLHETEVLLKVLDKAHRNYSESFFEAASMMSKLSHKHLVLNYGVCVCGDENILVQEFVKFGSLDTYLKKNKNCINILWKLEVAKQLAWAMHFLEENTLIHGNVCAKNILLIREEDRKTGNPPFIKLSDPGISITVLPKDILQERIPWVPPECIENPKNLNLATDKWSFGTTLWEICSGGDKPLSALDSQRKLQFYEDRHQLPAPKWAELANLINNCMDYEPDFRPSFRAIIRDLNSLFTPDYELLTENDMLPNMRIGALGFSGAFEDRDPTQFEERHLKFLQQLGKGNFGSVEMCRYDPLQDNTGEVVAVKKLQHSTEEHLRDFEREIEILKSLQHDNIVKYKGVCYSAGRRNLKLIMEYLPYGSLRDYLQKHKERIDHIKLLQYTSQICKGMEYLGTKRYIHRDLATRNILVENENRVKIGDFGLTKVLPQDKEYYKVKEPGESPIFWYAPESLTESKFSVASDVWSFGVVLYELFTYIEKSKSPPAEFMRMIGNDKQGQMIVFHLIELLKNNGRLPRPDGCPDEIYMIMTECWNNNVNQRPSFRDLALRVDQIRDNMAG
Test: as above

In order of rising phosphorylation enrichment:
1. PNATLYKMSSI [SERPINA7_Y40]  0.358
2. RRGMPYGGHGD [TGM1_Y312_R315H]  0.377
3. MIAIRYSHSRR [ACOXL_Y260_T255M]  0.434
4. MTKEQYIKMNR [ARFGEF2_Y797]  0.563
5. NFRNTYVNANE [KCNH2_Y475_T473N]  0.577
6. GLGGVYGGASG [KRT8_Y54_G53V]  0.587
7. ISRASYFRKGG [ALK_Y1282_Y1278S_YF]  0.59
8. ADDSYYTARSA [ZAP70_Y493]  0.597
9. KGELRYMHSPV [ABCD1_Y281_R285P]  0.619
10. EVKEAYMGNVL [ACAT1_Y90]  0.626
11. ELTTCYRKKCC [CCBE1_Y70]  0.652
12. KTNVSYFGALD [CACNB4_Y103_C104F]  0.653
13. ARIVDYNIIGW [MYH7_Y588_G584R]  0.671
14. RVDRDYVLKSA [HTATIP2_Y111]  0.75
15. RMDGTYACSFT [FLNB_Y704_YF]  0.806
16. KFDLMYAKLAF [TUBA1A_Y399_R402L]  0.811
17. SLIDMYSKVLD [OPA1_Y268_E270K]  0.814
18. LNEWHYGGLTG [PGAM2_Y92_R90W]  0.84
19. DPHECYAKVFN [ALB_Y394_D399N]  0.847
20. LWQSIYNLEAE [TNNT2_Y251]  0.921
21. DQVEQYKKELE [LMNA_Y259]  0.956
22. FKWAVYCIIGR [NUP93_Y391_R388W_YF]  1.03
23. DTDSSYCIPTA [GAB1_Y373]  1.07
24. LARDMHDKEFF [MET_Y1230_Y1230H_YF]  1.15
25. ELPEKYSQNIC [PKP2_Y626_Y631C]  1.18
26. LGGAMYYLEAD [PKHD1_Y452_E457D]  1.19
27. EYGRRYGFSCQ [CCDC93_Y209_R213C]  1.2
28. LGRKLYSIATP [ABHD12_Y345_A349T]  1.3
29. DTYDPYLDIAL [USP36_Y268_V271I]  1.32
30. TEVIWYKGDEE  1.45
31. PGLRGYPGLSG [COL4A2_Y306]  1.45
32. RRNEEYCLLDS [ITK_Y198]  1.57
33. GYYDLYGGEKF [PTPN11_Y66_D61G]  3.15

Target: EPHB2 (UniProt P29323)
Sequence (P29323 whole entry, looked up): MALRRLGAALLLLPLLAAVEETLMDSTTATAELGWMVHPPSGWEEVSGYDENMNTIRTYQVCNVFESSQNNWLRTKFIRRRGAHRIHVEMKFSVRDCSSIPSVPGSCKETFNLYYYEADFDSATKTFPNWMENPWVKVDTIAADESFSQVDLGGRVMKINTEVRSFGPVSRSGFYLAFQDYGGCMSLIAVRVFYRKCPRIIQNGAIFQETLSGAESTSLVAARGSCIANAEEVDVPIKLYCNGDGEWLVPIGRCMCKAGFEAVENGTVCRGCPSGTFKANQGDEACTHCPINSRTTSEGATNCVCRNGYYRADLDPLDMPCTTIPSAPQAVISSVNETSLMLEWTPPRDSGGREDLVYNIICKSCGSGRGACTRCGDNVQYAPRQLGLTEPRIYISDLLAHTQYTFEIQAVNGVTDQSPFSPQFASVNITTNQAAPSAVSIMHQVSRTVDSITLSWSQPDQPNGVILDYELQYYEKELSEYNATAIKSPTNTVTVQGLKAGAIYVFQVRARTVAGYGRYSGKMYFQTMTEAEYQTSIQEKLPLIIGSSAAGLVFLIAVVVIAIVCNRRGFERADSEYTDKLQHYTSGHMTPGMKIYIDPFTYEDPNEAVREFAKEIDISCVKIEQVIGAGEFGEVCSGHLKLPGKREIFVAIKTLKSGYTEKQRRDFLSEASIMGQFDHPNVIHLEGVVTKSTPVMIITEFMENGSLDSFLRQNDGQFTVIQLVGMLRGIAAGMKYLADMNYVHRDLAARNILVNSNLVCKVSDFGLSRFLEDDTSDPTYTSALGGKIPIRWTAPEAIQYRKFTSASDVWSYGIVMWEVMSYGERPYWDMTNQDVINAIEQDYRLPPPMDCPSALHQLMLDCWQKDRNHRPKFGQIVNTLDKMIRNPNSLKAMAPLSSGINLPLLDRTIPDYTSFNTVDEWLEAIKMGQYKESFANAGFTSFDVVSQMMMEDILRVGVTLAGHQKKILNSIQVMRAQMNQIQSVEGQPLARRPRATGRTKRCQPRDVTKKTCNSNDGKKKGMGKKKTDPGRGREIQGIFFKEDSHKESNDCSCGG
Test: as above

In order of rising phosphorylation enrichment:
1. PNATLYKMSSI [SERPINA7_Y40]  0.325
2. GLGGVYGGASG [KRT8_Y54_G53V]  0.355
3. MTKEQYIKMNR [ARFGEF2_Y797]  0.357
4. KGELRYMHSPV [ABCD1_Y281_R285P]  0.367
5. ISRASYFRKGG [ALK_Y1282_Y1278S_YF]  0.37
6. NFRNTYVNANE [KCNH2_Y475_T473N]  0.395
7. KTNVSYFGALD [CACNB4_Y103_C104F]  0.43
8. RVDRDYVLKSA [HTATIP2_Y111]  0.442
9. PGLRGYPGLSG [COL4A2_Y306]  0.442
10. LNEWHYGGLTG [PGAM2_Y92_R90W]  0.452
11. MIAIRYSHSRR [ACOXL_Y260_T255M]  0.465
12. LGRKLYSIATP [ABHD12_Y345_A349T]  0.471
13. ELTTCYRKKCC [CCBE1_Y70]  0.48
14. SLIDMYSKVLD [OPA1_Y268_E270K]  0.57
15. DPHECYAKVFN [ALB_Y394_D399N]  0.586
16. EVKEAYMGNVL [ACAT1_Y90]  0.593
17. EYGRRYGFSCQ [CCDC93_Y209_R213C]  0.594
18. DTDSSYCIPTA [GAB1_Y373]  0.598
19. ADDSYYTARSA [ZAP70_Y493]  0.603
20. ELPEKYSQNIC [PKP2_Y626_Y631C]  0.605
21. TEVIWYKGDEE  0.606
22. KFDLMYAKLAF [TUBA1A_Y399_R402L]  0.619
23. RRGMPYGGHGD [TGM1_Y312_R315H]  0.624
24. DQVEQYKKELE [LMNA_Y259]  0.644
25. ARIVDYNIIGW [MYH7_Y588_G584R]  0.662
26. LGGAMYYLEAD [PKHD1_Y452_E457D]  0.672
27. FKWAVYCIIGR [NUP93_Y391_R388W_YF]  0.673
28. RMDGTYACSFT [FLNB_Y704_YF]  0.741
29. LARDMHDKEFF [MET_Y1230_Y1230H_YF]  0.757
30. LWQSIYNLEAE [TNNT2_Y251]  0.791
31. DTYDPYLDIAL [USP36_Y268_V271I]  0.892
32. RRNEEYCLLDS [ITK_Y198]  1.06
33. GYYDLYGGEKF [PTPN11_Y66_D61G]  9.35
